Experimental data as given in patent US20100160617.

How the values were obtained:
[1] = target: HCV NS5B RNA-dependent RNA polymerase (Hepatitis C virus) (UniProt P26663); test: SPR; conditions: 2'-F on all C and U
[2] = target: HCV NS5B RNA-dependent RNA polymerase (Hepatitis C virus) (UniProt P26663); test: EMSA; conditions: 2'-F on all C and U; apparent Kd; 4% nondenaturing gel

Chain of HCV NS5B RNA-dependent RNA polymerase (Hepatitis C virus) (P26663 2420-3010): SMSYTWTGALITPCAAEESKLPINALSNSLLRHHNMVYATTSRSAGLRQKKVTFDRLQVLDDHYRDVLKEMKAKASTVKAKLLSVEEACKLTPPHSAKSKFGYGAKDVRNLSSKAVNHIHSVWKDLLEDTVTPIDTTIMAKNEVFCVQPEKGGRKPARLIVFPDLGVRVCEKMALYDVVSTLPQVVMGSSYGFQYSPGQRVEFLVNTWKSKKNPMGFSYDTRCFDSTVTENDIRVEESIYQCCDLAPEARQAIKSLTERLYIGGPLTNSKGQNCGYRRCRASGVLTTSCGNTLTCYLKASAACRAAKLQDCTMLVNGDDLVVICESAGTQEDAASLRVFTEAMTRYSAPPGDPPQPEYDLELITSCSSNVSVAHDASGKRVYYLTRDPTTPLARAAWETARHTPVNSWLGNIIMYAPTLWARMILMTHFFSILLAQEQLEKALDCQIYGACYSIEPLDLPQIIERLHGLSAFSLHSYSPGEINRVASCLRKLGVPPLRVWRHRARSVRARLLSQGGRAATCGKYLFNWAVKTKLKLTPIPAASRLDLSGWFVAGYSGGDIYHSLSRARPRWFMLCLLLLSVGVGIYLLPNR

For “AACGAUUGGUAGUAGAAUAUCGU [RNA aptamer #9-t3]”, the Kd ([1]; 5' end of the transcript may carry extra G from T7 primer) was 40.4 nM.

“GCUGGGCCUUGAACGAUUGGUAGUAGAAUAUCGUCAGUGAACGGC [RNA aptamer #9-t1]” showed a Kd [1] of 8.4 nM.

“GGGAGAGCGGAAGCGUGCUGGGCCGACAGGGUAGCUUACAGCUGCAUGAUCGCUAGAGGGCGAACAUAACCCAGAGGUCGAUGGAUCCCCCC [RNA aptamer #24]” showed a Kd [2] of 5 nM.

Sequence “GGGAGAGCGGAAGCGUGCUGGGCCUUGAACGAUUGGUAGUAGAAUAUCGUCAGUGAACGGCAGUCAUAACCCAGAGGUCGAUGGAUCCU [RNA aptamer #9]” has a Kd [2] of 18 nM.

Sequence “GUUGAACGAUUGGUAGUAGAAUAUCGUCAG [RNA aptamer #9-t2]” has a Kd ([1]; listing SEQ 4 lacks the 5' G printed in text) of 2.6 nM.
